Laboratory results reported in patent US20240166765A1 (ICONIC THERAPEUTICS, published 2024).
Where a chain is given by its changes, count along the chain named.

Columns and labels:
relipidated TF [1] = target: T1, relipidated TF (UniProt P13726 33-295, limits assumed); experiment: cell-based or functional assay
human TF ECD-His6 [2] = target: T2, human TF ECD-His6 (human, UniProt P13726 33-251); experiment: BLI (ForteBio Octet)
T2 construct: made in Expi293 cells; the entry holds the ECD with the C-terminal TG-His6; also called TF-His; hTF

cynomolgus TF ECD-His6 [3] = target: T3, cynomolgus TF ECD-His6 (cynomolgus monkey (Macaca fascicularis)); experiment: BLI (ForteBio Octet)
T3 construct: made in Expi293 cells; also called TF-His; cTF
T3 chain: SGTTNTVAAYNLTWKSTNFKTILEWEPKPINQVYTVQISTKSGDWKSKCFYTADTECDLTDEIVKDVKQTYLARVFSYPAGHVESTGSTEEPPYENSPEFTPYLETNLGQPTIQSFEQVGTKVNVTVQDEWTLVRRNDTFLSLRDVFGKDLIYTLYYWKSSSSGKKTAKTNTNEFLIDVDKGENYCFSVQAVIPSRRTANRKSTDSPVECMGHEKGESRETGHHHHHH

relipidated TF [4] = target: T1, relipidated TF; experiment: cell-based or functional assay; remark: listed apart in the source
human TF ECD-His6 [5] = target: T2, human TF ECD-His6; experiment: SPR (Biacore), antibody on chip, TF-His titrated
cynomolgus TF ECD-His6 [6] = target: T3, cynomolgus TF ECD-His6; experiment: SPR (Biacore), antibody on chip, TF-His titrated
[7] = target: rTF (rat TF) on HEK293 cells (rat, UniProt P42533 29-252); experiment: live cell staining of transfected HEK293, flow cytometry
mouse TF ECD-His6 = target: T4, mouse TF ECD-His6 (mouse, UniProt P20352 29-251); experiment: BLI (ForteBio Octet)
T4 construct: made in Expi293 cells; also called TF-His; mTF

pig TF-His = target: T5, pig TF-His (pig (Sus scrofa)); experiment: SPR (Biacore), antibody captured by anti-human IgG on CM5 chip, pig TF-His in solution, 1:1 model
T5 construct: also called pig TF ECD-His; pTF
T5 chain: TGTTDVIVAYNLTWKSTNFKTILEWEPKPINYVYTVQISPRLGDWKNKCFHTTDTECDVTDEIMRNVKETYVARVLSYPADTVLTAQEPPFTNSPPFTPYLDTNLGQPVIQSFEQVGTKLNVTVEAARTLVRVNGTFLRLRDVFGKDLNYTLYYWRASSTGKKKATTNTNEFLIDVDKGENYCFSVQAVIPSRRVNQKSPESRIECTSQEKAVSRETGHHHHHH

Sequence of rTF (rat TF) on HEK293 cells (P42533 29-252): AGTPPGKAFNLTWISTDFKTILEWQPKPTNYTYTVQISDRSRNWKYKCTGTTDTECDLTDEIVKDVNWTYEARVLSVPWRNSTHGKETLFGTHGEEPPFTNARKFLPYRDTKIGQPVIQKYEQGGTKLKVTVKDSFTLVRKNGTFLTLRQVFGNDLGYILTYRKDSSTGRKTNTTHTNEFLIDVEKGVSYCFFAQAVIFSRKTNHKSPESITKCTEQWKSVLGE

B1: 1F (antibody, human IgG1, V domains shown)
VH: EVQLLESGGGLVQPGGSLRLSCAASGFTFSDYAMGWVRQAPGKGLEWVSTISGSGGLTYYADSVKGRFTISRDNSKNTLYLQMNSLRAEDTAVYYCAKAPYGYYMDVWGKGTTVTVSS
VL: not shown
notes: human IgG1
- decrease of peak IIa concentration, TGA with 10 min pre-incubation, 100 nM Ab (relipidated TF [1]): 93%
- decrease of peak IIa concentration, TGA without pre-incubation, 100 nM Ab (relipidated TF [1]): 92%
- Kd (human TF ECD-His6 [2]): 1.28 nM
- Kd (cynomolgus TF ECD-His6 [3]): 1.43 nM
- TGA without pre-incubation, 10 nM Ab: % ETP (relipidated TF [4]): 58%
- TGA without pre-incubation, 10 nM Ab: % Peak IIa (relipidated TF [4]): 21%
- TGA without pre-incubation, 10 nM Ab: ETP (relipidated TF [4]): 1400 nM·min
- TGA without pre-incubation, 10 nM Ab: Lag Time (relipidated TF [4]): 12.1 min
- TGA without pre-incubation, 10 nM Ab: Peak IIa (relipidated TF [4]): 83 nM
- TGA without pre-incubation, 10 nM Ab: ttPeak (relipidated TF [4]): 19.8 min
- TGA without pre-incubation, 50 nM Ab: % Peak IIa (relipidated TF [4]): 8%
- TGA without pre-incubation, 50 nM Ab: Lag Time (relipidated TF [4]): 27.2 min
- TGA without pre-incubation, 50 nM Ab: Peak IIa (relipidated TF [4]): 32 nM
- TGA without pre-incubation, 50 nM Ab: ttPeak (relipidated TF [4]): 36.8 min
- TGA without pre-incubation, 100 nM Ab: % Peak IIa (relipidated TF [4]): 7%
- TGA without pre-incubation, 100 nM Ab: Lag Time (relipidated TF [4]): 25.9 min
- TGA without pre-incubation, 100 nM Ab: Peak IIa (relipidated TF [4]): 29 nM
- TGA without pre-incubation, 100 nM Ab: ttPeak (relipidated TF [4]): 37.9 min
- Kd (human TF ECD-His6 [5]): 0.31 nM
- Kd (cynomolgus TF ECD-His6 [6]): 0.26 nM
- binding result [7]: no binding (tested: 15 µg/ml (100 nM))

B2: M1593 (antibody, V domains shown)
VH: EVQLVQSGAEVKKPGESLRISCKGSGYTFAPYWIEWVRQMPGKGLEWMGDILPGTGFTTYSPSFQGHVTISADKSISTAYLQWSSLKASDTAMYYCARSGYYGNSGFAYWGQGTLVTVSS
VL: DIVMTQTPLSLPVTPGEPASISCKSSQSLLSSGNQKNYLTWYLQKPGQSPQLLIYWASTRESGVPDRFSGSGSGTDFTLKISRVEAEDVGVYYCQNDYTYPLTFGQGTKLEIK
notes: also called 10H10; 10H10 (M1593)
- binding result [7]: no binding (tested: 15 µg/ml (100 nM))

B3: 29E (antibody, human IgG1, V domains shown)
VH: QVQLVESGGGVVQPGRSLRLSCAASGFTFRSYGMHWVRQAPGKGLEWVAVITYDGINKYYADSVEGRFTISRDNSKNTLYLQMNSLRAEDTAVYYCARDGVYYGVYDYWGQGTLVTVSS
VL: not shown
notes: human IgG1
- Kd (human TF ECD-His6 [2]): 2.32 nM
- Kd (cynomolgus TF ECD-His6 [3]): 15 nM
- Kd (human TF ECD-His6 [5]): 0.47 nM
- Kd (cynomolgus TF ECD-His6 [6]): 5.06 nM
- binding result [7]: no binding (tested: 15 µg/ml (100 nM))

B4: TF-011 (antibody, V domains shown)
VH: EVQLLESGGGLVQPGGSLRLSCAASGFTFSNYAMSWVRQAPGKGLEWVSSISGSGDYTYYTDSVKGRFTISRDNSKNTLYLQMNSLRAEDTAVYYCARSPWGYYLDSWGQGTLVTVSS
VL: DIQMTQSPPSLSASAGDRVTITCRASQGISSRLAWYQQKPEKAPKSLIYAASSLQSGVPSRFSGSGSGTDFTLTISSLQPEDFATYYCQQYNSYPYTFGQGTKLEIK
notes: previously described anti-TF antibody
- decrease of peak IIa concentration, TGA with 10 min pre-incubation, 100 nM Ab (relipidated TF [1]): 91%
- decrease of peak IIa concentration, TGA without pre-incubation, 100 nM Ab (relipidated TF [1]): 91%
- binding result [7]: no binding (tested: 15 µg/ml (100 nM))

B5: 54E (antibody, human IgG1, V domains shown)
VH: QVQLVQSGAEVKKPGASVKVSCKASGYTFANYYMHWVRQAPGQGLEWMGIINPSGGITVYAQKFQGRVTMTRDTSTSTVYMELSSLRSEDTAVYYCARGGSKVAALAFDIWGQGTMVTVSS
VL: DIQMTQSPSSLSASVGDRVTITCQASQDISNSLNWYQQKPGKAPKLLIYDASNLETGVPSRFSGSRSGTDFTFTISSLQPEDIATYYCQQYNFHPLTFGGGTKVEIK
notes: human IgG1
- Kd (human TF ECD-His6 [2]): 1.59 nM
- Kd (cynomolgus TF ECD-His6 [3]): 4.16 nM
- Kd (human TF ECD-His6 [5]): 0.42 nM
- Kd (cynomolgus TF ECD-His6 [6]): 1.83 nM
- binding result [7]: no binding (tested: 15 µg/ml (100 nM))

B6: 5G9 (antibody, V domains shown)
VH: QVQLVESGGGVVQPGRSLRLSCKASGFNIKDYYMHWVRQAPGKGLEWIGLIDPENGNTIYDPKFQGRFTISADNSKNTLFLQMDSLRPEDTAVYYCARDNSYYFDYWGQGTPVTVSS
VL: DIQMTQSPSSLSASVGDRVTITCKASQDIRKYLNWYQQKPGKAPKLLIYYATSLADGVPSRFSGSGSGTDYTFTISSLQPEDIATYYCLQHGESPYTFGQGTKLEIT
- decrease of peak IIa concentration, TGA with 10 min pre-incubation, 100 nM Ab (relipidated TF [1]): 92%
- decrease of peak IIa concentration, TGA without pre-incubation, 100 nM Ab (relipidated TF [1]): 92%

B7: 25A5 (antibody, human IgG1, kappa, V domains shown)
VH: QVQLVQSGAEVKKPGASVKVSCKASGYTFDVYGISWVRQAPGQGLEWMGWIAPYSGNTNYAQKLQGRVTMTTDTSTSTAYMELRSLRSDDTAVYYCARDAGTYSPFGYGMDVWGQGTTVTVSS
VL: DIQMTQSPSTLSASVGDRVTITCRASESISNWLAWYQQKPGKAPKLLIYKAYSLEYGVPSRFSGSGSGTEFTLTISSLQPDDFATYYCQQFQKLPPFTFGGGTKVEIKR
notes: human IgG1
- Kd (human TF ECD-His6 [2]): 0.64 nM
- Kd (mouse TF ECD-His6): 188 nM
- Kd (human TF ECD-His6 [5]): 0.08 nM
- Kd (cynomolgus TF ECD-His6 [6]): 0.04 nM

B8: 25G (antibody, human IgG1, kappa, V domains shown)
VH: B7 VH with D30R, V31S, I51V, S55N, F106Y
VL: B7 VL with E27Q, N31S, Y52S, Y56S, K93S
notes: human IgG1
- Kd (human TF ECD-His6 [2]): 21.9 nM
- Kd (cynomolgus TF ECD-His6 [3]): 17.5 nM
- Kd (mouse TF ECD-His6): 114 nM
- Kd (human TF ECD-His6 [5]): 23 nM
- Kd (cynomolgus TF ECD-His6 [6]): 18 nM

B9: 25A5-T (antibody, human IgG1, kappa, V domains shown)
VH: B7 VH with V31A
VL: B7 VL
notes: human IgG1
- binding result [7]: no binding (tested: 15 µg/ml (100 nM))

B10: 25A3 (antibody, human IgG1, kappa, V domains shown)
VH: B7 VH
VL: B7 VL with R24Q, E27Q, S30N, S53N, Y56S, Q90L, K93S
notes: Human IgG1; also called antibody 25A3
- Kd (pig TF-His): 5.5 nM

B11: 43B1 (antibody, human IgG1, V domains shown)
VH: QVQLQESGPGLVKPSQTLSLTCTVSGGSISSGQYWSWIRQHPGKGLEWIGEIYYSGSTRYNPSLKSRVTISVDTSKNQFSLKLSSVTAADTAVYYCARDAPYYYGGGYYYYMDVWGKGTTVTVSS
VL: EIVLTQSPGTLSLSPGERATLSCRASESVDSSYLAWYQQKPGQAPRLLIYGASTRQTGIPDRFSGSGSGTDFTLTISRLEPEDFAVYYCQQAGVVPYTFGGGTKVEIK
notes: human IgG1
- Kd (mouse TF ECD-His6): 72.1 nM
- TGA without pre-incubation, 10 nM Ab: % Peak IIa (relipidated TF [4]): 87%
- TGA without pre-incubation, 10 nM Ab: ETP (relipidated TF [4]): 2290 nM·min
- TGA without pre-incubation, 10 nM Ab: Lag Time (relipidated TF [4]): 4.9 min
- TGA without pre-incubation, 10 nM Ab: Peak IIa (relipidated TF [4]): 299 nM
- TGA without pre-incubation, 10 nM Ab: ttPeak (relipidated TF [4]): 8.9 min
- TGA without pre-incubation, 50 nM Ab: ETP (relipidated TF [4]): 2200 nM·min
- TGA without pre-incubation, 50 nM Ab: Lag Time (relipidated TF [4]): 5.2 min
- TGA without pre-incubation, 50 nM Ab: Peak IIa (relipidated TF [4]): 232 nM
- TGA without pre-incubation, 100 nM Ab: ETP (relipidated TF [4]): 2170 nM·min
- TGA without pre-incubation, 100 nM Ab: Lag Time (relipidated TF [4]): 5.2 min
- TGA without pre-incubation, 100 nM Ab: Peak IIa (relipidated TF [4]): 221 nM

B12: 43D (antibody, human IgG1, V domains shown)
VH: QVQLQQWGAGLLKPSETLSLTCAVYGGSLSGYYWSWIRQPPGKGLEWIGEIGASGSTRYNPSLKSRVTISVDTSKNQFSLKLSSVTAADTAVYYCARDTPYYYEGGYYYYMDVWGKGTTVTVSS
VL: B11 VL with E27Q, D30S, T54S, Q56A, A92V
notes: human IgG1
- Kd (human TF ECD-His6 [2]): 3.84 nM
- Kd (cynomolgus TF ECD-His6 [3]): 4.12 nM
- Kd (mouse TF ECD-His6): 281 nM
- Kd (human TF ECD-His6 [5]): 2.09 nM
- Kd (cynomolgus TF ECD-His6 [6]): 5.66 nM

B13: 43B (antibody, human IgG1, V domains shown)
VH: B11 VH
VL: B11 VL with E27Q, D30S, T54S, Q56A, A92V
notes: human IgG1
- Kd (human TF ECD-His6 [2]): 2.4 nM
- Kd (cynomolgus TF ECD-His6 [3]): 3.4 nM
- Kd (mouse TF ECD-His6): 161 nM
- Kd (human TF ECD-His6 [5]): 1.75 nM
- Kd (cynomolgus TF ECD-His6 [6]): 5.64 nM

B14: 43B7 (antibody, human IgG1, V domains shown)
VH: B11 VH
VL: B11 VL with S53D, T54S, Q56A, A92D
notes: human IgG1
- Kd (human TF ECD-His6 [2]): 0.86 nM
- Kd (cynomolgus TF ECD-His6 [3]): 0.94 nM
- Kd (mouse TF ECD-His6): 360 nM
- Kd (human TF ECD-His6 [5]): 0.14 nM
- Kd (cynomolgus TF ECD-His6 [6]): 0.24 nM
